Data published in article PMC12383261, “Mechanistic adaptation of the metazoan RabGEFs Mon1-Ccz1 and Fuzzy-Inturned” (Science Advances, 2025).

T1: Fuzzy^LD1-Inturned^LD1 catalytic core complex (human)
T1 sequence (Q9BT04 whole entry, looked up): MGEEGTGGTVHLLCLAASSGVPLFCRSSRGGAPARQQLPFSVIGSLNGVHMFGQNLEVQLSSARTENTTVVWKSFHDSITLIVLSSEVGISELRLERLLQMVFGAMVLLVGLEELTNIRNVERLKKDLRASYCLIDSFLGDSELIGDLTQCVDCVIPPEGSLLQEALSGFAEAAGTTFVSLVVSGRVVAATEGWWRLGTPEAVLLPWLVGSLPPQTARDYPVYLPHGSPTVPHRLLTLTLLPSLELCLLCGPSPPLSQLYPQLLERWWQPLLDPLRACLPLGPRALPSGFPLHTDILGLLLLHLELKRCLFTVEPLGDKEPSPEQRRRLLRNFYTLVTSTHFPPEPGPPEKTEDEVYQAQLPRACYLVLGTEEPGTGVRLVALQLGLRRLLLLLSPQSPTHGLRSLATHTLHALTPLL
T1 sequence (Q9ULD6 whole entry, looked up): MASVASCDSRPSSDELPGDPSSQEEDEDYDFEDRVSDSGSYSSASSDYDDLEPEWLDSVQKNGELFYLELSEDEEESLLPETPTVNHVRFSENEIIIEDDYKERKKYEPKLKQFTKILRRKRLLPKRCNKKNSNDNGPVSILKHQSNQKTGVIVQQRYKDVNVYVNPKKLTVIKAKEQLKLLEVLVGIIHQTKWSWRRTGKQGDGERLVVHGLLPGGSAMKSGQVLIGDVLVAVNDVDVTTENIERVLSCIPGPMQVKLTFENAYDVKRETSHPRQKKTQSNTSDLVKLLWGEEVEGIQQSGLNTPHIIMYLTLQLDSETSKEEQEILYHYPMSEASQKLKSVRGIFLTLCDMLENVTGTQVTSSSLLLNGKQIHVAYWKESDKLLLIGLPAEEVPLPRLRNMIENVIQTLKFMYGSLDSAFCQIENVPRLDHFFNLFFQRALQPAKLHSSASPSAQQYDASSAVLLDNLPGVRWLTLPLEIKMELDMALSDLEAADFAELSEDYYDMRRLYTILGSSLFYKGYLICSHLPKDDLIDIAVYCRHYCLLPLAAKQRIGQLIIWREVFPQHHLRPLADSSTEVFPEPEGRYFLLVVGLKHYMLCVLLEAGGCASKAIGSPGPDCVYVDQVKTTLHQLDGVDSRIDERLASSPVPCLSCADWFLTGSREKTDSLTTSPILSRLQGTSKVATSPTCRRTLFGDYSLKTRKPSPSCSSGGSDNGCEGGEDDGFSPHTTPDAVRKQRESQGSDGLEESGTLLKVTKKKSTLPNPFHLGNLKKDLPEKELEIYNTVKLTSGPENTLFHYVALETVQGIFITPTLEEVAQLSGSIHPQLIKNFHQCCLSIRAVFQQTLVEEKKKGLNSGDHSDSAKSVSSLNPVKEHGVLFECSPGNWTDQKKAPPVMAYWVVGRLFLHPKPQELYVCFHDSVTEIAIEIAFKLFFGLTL

T2: HsInturned (human Inturned) (human, UniProt Q9ULD6 1-942)
T2 construct: Inturned, human; the N-terminal PDZ domain is not visible in the map; also called FLAG-Inturned; source: Spodoptera frugiperda 21 cells (biGBac), coexpressed with Fuzzy and Rab23^N121I, purified (glutathione agarose, SEC)
T2 sequence: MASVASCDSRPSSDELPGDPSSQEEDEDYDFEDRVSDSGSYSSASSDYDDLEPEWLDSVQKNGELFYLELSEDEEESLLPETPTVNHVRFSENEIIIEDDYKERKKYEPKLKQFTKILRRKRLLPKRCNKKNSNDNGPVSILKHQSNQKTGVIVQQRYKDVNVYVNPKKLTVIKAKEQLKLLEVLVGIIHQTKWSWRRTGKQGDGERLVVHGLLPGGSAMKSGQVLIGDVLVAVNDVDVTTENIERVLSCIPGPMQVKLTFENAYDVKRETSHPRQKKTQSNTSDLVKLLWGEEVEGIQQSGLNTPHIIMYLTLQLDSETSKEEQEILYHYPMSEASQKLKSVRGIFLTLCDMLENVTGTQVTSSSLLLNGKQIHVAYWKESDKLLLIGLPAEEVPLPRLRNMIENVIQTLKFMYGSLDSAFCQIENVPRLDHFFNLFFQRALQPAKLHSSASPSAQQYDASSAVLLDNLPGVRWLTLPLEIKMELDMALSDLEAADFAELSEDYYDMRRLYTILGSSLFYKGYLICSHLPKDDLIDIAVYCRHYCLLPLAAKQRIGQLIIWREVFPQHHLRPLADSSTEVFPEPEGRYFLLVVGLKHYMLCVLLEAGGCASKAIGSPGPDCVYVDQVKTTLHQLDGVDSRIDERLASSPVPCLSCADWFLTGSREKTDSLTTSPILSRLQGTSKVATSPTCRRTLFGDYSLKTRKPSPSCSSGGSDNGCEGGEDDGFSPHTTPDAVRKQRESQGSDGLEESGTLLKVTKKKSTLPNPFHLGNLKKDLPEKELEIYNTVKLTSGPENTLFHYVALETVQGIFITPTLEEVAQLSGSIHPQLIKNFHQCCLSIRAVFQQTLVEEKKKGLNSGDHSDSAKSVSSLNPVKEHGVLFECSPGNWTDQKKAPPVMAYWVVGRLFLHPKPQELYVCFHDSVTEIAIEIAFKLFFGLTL

T3: HsFuzzy-Inturned complex (cryo-EM sample) (human, UniProt Q9BT04 2-418; Q9ULD6 1-942)
T3 construct: Fuzzy, human; as m5; Inturned, human; as m6; Heterodimer of m5 and m6; seen alone and with Rab23^N121I in the same cryo-EM sample; also called dimeric Fuzzy-Inturned complex; source: Spodoptera frugiperda 21 cells (biGBac), coexpressed, purified (glutathione agarose, SEC)
T3 sequence 1: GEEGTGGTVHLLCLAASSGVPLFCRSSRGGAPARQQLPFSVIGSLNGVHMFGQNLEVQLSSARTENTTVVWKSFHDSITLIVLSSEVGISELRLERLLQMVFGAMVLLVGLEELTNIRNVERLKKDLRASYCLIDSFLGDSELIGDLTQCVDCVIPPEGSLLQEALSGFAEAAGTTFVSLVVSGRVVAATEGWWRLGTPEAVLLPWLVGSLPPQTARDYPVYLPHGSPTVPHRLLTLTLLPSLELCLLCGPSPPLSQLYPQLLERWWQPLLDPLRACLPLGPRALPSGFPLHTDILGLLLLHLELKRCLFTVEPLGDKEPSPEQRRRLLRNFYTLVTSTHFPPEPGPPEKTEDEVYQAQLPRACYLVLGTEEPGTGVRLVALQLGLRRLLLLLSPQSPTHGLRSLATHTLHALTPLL
T3 sequence 2: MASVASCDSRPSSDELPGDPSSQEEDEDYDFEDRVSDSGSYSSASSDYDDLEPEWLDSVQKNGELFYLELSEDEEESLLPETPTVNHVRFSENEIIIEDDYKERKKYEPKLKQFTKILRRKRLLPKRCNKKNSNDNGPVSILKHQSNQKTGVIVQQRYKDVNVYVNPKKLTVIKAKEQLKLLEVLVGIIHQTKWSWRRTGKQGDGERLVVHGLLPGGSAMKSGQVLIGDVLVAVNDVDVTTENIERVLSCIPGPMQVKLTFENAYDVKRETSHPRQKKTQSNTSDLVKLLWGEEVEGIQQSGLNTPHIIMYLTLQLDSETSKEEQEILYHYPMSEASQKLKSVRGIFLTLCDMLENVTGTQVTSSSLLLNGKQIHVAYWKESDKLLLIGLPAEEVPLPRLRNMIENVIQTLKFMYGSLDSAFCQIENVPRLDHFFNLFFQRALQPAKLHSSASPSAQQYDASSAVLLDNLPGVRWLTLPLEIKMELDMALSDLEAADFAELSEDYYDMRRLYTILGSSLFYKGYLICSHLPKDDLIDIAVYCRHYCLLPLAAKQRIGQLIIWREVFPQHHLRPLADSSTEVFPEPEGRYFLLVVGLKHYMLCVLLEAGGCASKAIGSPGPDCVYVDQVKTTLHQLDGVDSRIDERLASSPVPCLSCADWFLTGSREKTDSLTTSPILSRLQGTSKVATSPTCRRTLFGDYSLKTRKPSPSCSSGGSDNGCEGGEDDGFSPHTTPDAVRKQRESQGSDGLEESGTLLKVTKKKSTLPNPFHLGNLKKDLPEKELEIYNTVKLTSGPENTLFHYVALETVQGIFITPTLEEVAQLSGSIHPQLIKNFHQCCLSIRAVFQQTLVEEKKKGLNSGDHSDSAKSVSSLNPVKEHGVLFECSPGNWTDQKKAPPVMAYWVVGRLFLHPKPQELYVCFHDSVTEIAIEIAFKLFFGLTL

B1: Rab23^I33A/T35A (natural protein)
chain: MLEEDMEVAIKMVVVGNGAVGKSSMIQRYCKGAFAKDYKKTIGVDFLERQIQVNDEDVRLMLWDTAGQEEFDAITKAYYRGAQACVLVFSTTDRESFEAVSSWREKVVAEVGDIPTVLVQNKIDLLDDSCIKNEEAEALAKRLKLRFYRTSVKEDLNVNEVFKYLAEKYLQKLKQQIAEDPELTHSSSNKIGVFNTSGGSHSGQNSGTLNGGDVINLRPNKQRTKKNRNPFSSCSIP
B2: HsRab23^N121I (nucleotide-free mutant of human Rab23) (natural protein)
chain: LEEDMEVAIKMVVVGNGAVGKSSMIQRYCKGIFTKDYKKTIGVDFLERQIQVNDEDVRLMLWDTAGQEEFDAITKAYYRGAQACVLVFSTTDRESFEAVSSWREKVVAEVGDIPTVLVQIKIDLLDDSCIKNEEAEALAKRLKLRFYRTSVKEDLNVNEVFKYLAEKYLQKLKQQIAEDPELTHSSSNKIGVFNTSGGSHSGQNSGTLNGGDVINLRPNKQRTKKNRNPFSSCSIP
notes: Rab23, human; also called GST-Rab23^N121I; source: Spodoptera frugiperda 21 cells (biGBac), coexpressed with Fuzzy and Inturned, purified (glutathione agarose, SEC); not shown: GST, N-terminal, cleaved
B3: HsFuzzy (human Fuzzy) (natural protein)
chain: GEEGTGGTVHLLCLAASSGVPLFCRSSRGGAPARQQLPFSVIGSLNGVHMFGQNLEVQLSSARTENTTVVWKSFHDSITLIVLSSEVGISELRLERLLQMVFGAMVLLVGLEELTNIRNVERLKKDLRASYCLIDSFLGDSELIGDLTQCVDCVIPPEGSLLQEALSGFAEAAGTTFVSLVVSGRVVAATEGWWRLGTPEAVLLPWLVGSLPPQTARDYPVYLPHGSPTVPHRLLTLTLLPSLELCLLCGPSPPLSQLYPQLLERWWQPLLDPLRACLPLGPRALPSGFPLHTDILGLLLLHLELKRCLFTVEPLGDKEPSPEQRRRLLRNFYTLVTSTHFPPEPGPPEKTEDEVYQAQLPRACYLVLGTEEPGTGVRLVALQLGLRRLLLLLSPQSPTHGLRSLATHTLHALTPLL
notes: Fuzzy, human; also called His-SUMO-Fuzzy; source: Spodoptera frugiperda 21 cells (biGBac), coexpressed with Inturned and Rab23^N121I, purified (glutathione agarose, SEC)

Legend:
[1] = target: T1, Fuzzy^LD1-Inturned^LD1 catalytic core complex (human)
HsFuzzy (human Fuzzy) = target: B3; experiment: cryo-EM structure; HsFuzzy, HsInturned and HsRab23^N121I coexpressed in insect cells, complex purified; ~0.7 mg/ml; 0.002% lauryl maltose neopentyl glycol on grid; dimeric and trimeric particles in one sample; 50 mM tris, 200 mM NaCl, 0.5 mM TCEP, 1 mM MgCl2 (pH 8); settings: both partners purified
[2] = target: T2, HsInturned (human Inturned); experiment: as above; settings: both partners purified
[3] = target: T3, HsFuzzy-Inturned complex (cryo-EM …); experiment: as above; settings: both partners purified

| Binder | stimulation of nucleotide exchange (MANT-GDP release) of Rab23^I33A/T35A by Fuzzy^LD1-Inturned^LD1, against Rab23 WT [1] | binding result (HsFuzzy (human Fuzzy)) | binding result [2] | binding result [3] |
| --- | --- | --- | --- | --- |
| B1 | 5 fold |  |  |  |
| B2 |  | binds | binds | binds |
| B3 |  |  | binds |  |
